# The supplement of paper PMC9112550, “Optimization of the antimicrobial peptide Bac7 by deep mutational scanning” (BMC Biology, 2022)
# Tested on: Escherichia coli TOP10
# Assay: shrunken log2 fold change of peptide-encoding DNA abundance (4.5 h post-induction vs induction); higher = less antimicrobial activity (less host growth inhibition)
# Conditions: time post-induction: 4.5 h; library: site-saturation at positions 5, 18, 19, 20
# 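Note: peptides expressed intracellularly from a pBAD plasmid library in pooled LB shake-flask culture, induced with 0.3% L-arabinose, DNA abundance read by NGS, three biological replicates, DESeq2 with apeglm shrinkage.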
row,Sequence,shrunken log2 fold change
1,RRIRVRPPRLPRPRPRPMYEPRP,-0.774
2,RRIRSRPPRLPRPRPRPSCGPRP,-0.0515
3,RRIRSRPPRLPRPRPRPMFEPRP,-0.0573
4,RRIRWRPPRLPRPRPRPGLRPRP,0.53
5,RRIRWRPPRLPRPRPRPWVPPRP,0.00582
6,RRIRGRPPRLPRPRPRPHKAPRP,-0.0636
7,RRIRYRPPRLPRPRPRPWEYPRP,-0.142
8,RRIRFRPPRLPRPRPRPIRCPRP,0.0461
9,RRIRTRPPRLPRPRPRPSLGPRP,-0.229
10,RRIRARPPRLPRPRPRPPMHPRP,0.51
11,RRIRFRPPRLPRPRPRPQWIPRP,-0.148
12,RRIRERPPRLPRPRPRPLSYPRP,-0.193
13,RRIRCRPPRLPRPRPRPEDPPRP,0.779
14,RRIRTRPPRLPRPRPRPNQIPRP,-0.469
15,RRIRCRPPRLPRPRPRPINVPRP,-0.307
16,RRIRARPPRLPRPRPRPRILPRP,0.323
17,RRIRSRPPRLPRPRPRPGDNPRP,0.0473
18,RRIRNRPPRLPRPRPRPKPLPRP,-0.102
19,RRIRFRPPRLPRPRPRPPCSPRP,0.0952
20,RRIRTRPPRLPRPRPRPFMCPRP,-0.126
21,RRIRQRPPRLPRPRPRPRQIPRP,0.0413
22,RRIRLRPPRLPRPRPRPTLKPRP,-0.307
23,RRIRVRPPRLPRPRPRPECCPRP,0.0234
24,RRIRHRPPRLPRPRPRPTKTPRP,-0.194
25,RRIRFRPPRLPRPRPRPYCHPRP,-0.687

row,Sequence,shrunken log2 fold change
1,RRIRERPPRLPRPRPRPKRTPRP,0.108
2,RRIRTRPPRLPRPRPRPGNAPRP,-0.0554
3,RRIRFRPPRLPRPRPRPAGEPRP,0.191
4,RRIRTRPPRLPRPRPRPTEGPRP,0.1
5,RRIRFRPPRLPRPRPRPDPCPRP,-0.191
6,RRIRLRPPRLPRPRPRPDYAPRP,-0.224
7,RRIRGRPPRLPRPRPRPPVTPRP,0.728
8,RRIRCRPPRLPRPRPRPFKDPRP,-0.54
9,RRIRSRPPRLPRPRPRPPTPPRP,0.63
10,RRIRDRPPRLPRPRPRPGGKPRP,-0.0179
11,RRIRARPPRLPRPRPRPNGYPRP,0.122
12,RRIRDRPPRLPRPRPRPVSGPRP,0.088
13,RRIRTRPPRLPRPRPRPHNLPRP,-0.274
14,RRIRQRPPRLPRPRPRPGFMPRP,-0.176
15,RRIRIRPPRLPRPRPRPPWWPRP,0.516
16,RRIRLRPPRLPRPRPRPWANPRP,0.0875
17,RRIRSRPPRLPRPRPRPMMSPRP,0.0638
18,RRIRTRPPRLPRPRPRPETHPRP,0.179
19,RRIRQRPPRLPRPRPRPQFEPRP,-0.0143
20,RRIRFRPPRLPRPRPRPTENPRP,-0.115
21,RRIRWRPPRLPRPRPRPCNDPRP,-0.172
22,RRIRNRPPRLPRPRPRPHTIPRP,-0.106
23,RRIRYRPPRLPRPRPRPEAKPRP,-0.109
24,RRIRPRPPRLPRPRPRPEFTPRP,0.26
25,RRIRFRPPRLPRPRPRPDLYPRP,-0.053

row,Sequence,shrunken log2 fold change
1,RRIRTRPPRLPRPRPRPMICPRP,-0.0677
2,RRIRDRPPRLPRPRPRPYPVPRP,0.00705
3,RRIRQRPPRLPRPRPRPSHNPRP,0.547
4,RRIRARPPRLPRPRPRPQEFPRP,-0.0568
5,RRIRWRPPRLPRPRPRPMLGPRP,0.464
6,RRIRMRPPRLPRPRPRPQEVPRP,0.126
7,RRIRPRPPRLPRPRPRPKVPPRP,0.303
8,RRIRWRPPRLPRPRPRPFWFPRP,-0.119
9,RRIRIRPPRLPRPRPRPQLAPRP,-0.0191
10,RRIRPRPPRLPRPRPRPDNIPRP,-0.406
11,RRIRRRPPRLPRPRPRPNYFPRP,-0.323
12,RRIRERPPRLPRPRPRPPRLPRP,0.178
13,RRIRARPPRLPRPRPRPFEQPRP,-0.072
14,RRIRYRPPRLPRPRPRPILLPRP,-0.322
15,RRIRYRPPRLPRPRPRPIRSPRP,-0.214
16,RRIRPRPPRLPRPRPRPIYDPRP,-0.251
17,RRIRMRPPRLPRPRPRPVGVPRP,0.806
18,RRIRKRPPRLPRPRPRPGNLPRP,0.0368
19,RRIRVRPPRLPRPRPRPDGFPRP,-0.0085
20,RRIRKRPPRLPRPRPRPQKSPRP,0.0653
21,RRIRPRPPRLPRPRPRPKRPPRP,0.465
22,RRIRIRPPRLPRPRPRPLIGPRP,-0.0888
23,RRIRSRPPRLPRPRPRPVPGPRP,0.137
24,RRIRTRPPRLPRPRPRPMMDPRP,-0.141
25,RRIRNRPPRLPRPRPRPFTVPRP,-0.00101
